Laboratory results reported in patent publication US20180155451A1 (published 2018).

T1: FcγRIIb (human, UniProt P31994 43-217)
T1 construct: extracellular domain; also called FcgRIIb; 2b; not shown: His tag at the C terminus
T1 sequence (looked up): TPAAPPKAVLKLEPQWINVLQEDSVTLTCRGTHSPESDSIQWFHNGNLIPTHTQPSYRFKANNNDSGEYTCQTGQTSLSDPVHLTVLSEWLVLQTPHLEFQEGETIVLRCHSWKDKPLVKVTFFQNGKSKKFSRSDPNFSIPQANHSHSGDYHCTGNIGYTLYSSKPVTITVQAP

T2: FcγRIIb extracellular domain with C-terminal His tag (human, UniProt P31994 43-217)
T2 construct: extracellular domain; Expressed in FreeStyle293 cells and used as the analyte in Biacore; also called FcgRIIb; 2b; not shown: His tag attached to the C terminus
T2 sequence (looked up): T1 sequence (looked up)

B1: GpH7-A5/GpH7-B3 variant P271_01G/GpL16-k0 (antibody, human IgG1, kappa)
heavy 1: not shown
heavy 2: not shown
light: DIVMTQSPLSLPVTPGEPASISCQASESLVHSNRNTYLHWYLQKPGQSPQLLIYKVSNRFSGVPDRFSGSGSGTDFTLKISRVEAEDVGVYYCSQNTHVPPTFGQGTKVEIERTVAAPSVFIFPPSDEQLKSGTASVVCLLNNFYPREAKVQWKVDNALQSGNSQESVTEQDSKDSTYSLSSTLTLSKADYEKHKVYACEVTHQGLSSPVTKSFNRGEC
notes: heterodimerized IgG1; alteration in the GpH7-B3 H chain only; also called He Ab
B2: GpH7-A5/GpH7-B3 variant S267_10E/GpL16-k0 (He Ab) (antibody, human IgG1, kappa)
heavy 1: not shown
heavy 2: not shown
light: B1 light
notes: Anti-glypican-3 heterodimerized IgG1 antibody; the mutation stands in only one H chain (the GpH7-B3 chain); also called S267E in one H chain
B3: GpH7-A5/GpH7-B3 variant S267_20W/GpL16-k0 (He Ab) (antibody, human IgG1, kappa)
heavy 1: not shown
heavy 2: not shown
light: B1 light
notes: Anti-glypican-3 heterodimerized IgG1 antibody; the mutation stands in only one H chain (the GpH7-B3 chain); also called S267W in one H chain
B4: GpH7-A5/GpH7-B3 variant H268_02A/GpL16-k0 (He Ab) (antibody, human IgG1, kappa)
heavy 1: not shown
heavy 2: not shown
light: B1 light
notes: Anti-glypican-3 heterodimerized IgG1 antibody; the mutation stands in only one H chain (the GpH7-B3 chain); also called H268A in one H chain
B5: GpH7-A5/GpH7-B3 variant H268_13S/GpL16-k0 (He Ab) (antibody, human IgG1, kappa)
heavy 1: not shown
heavy 2: not shown
light: B1 light
notes: Anti-glypican-3 heterodimerized IgG1 antibody; the mutation stands in only one H chain (the GpH7-B3 chain); also called H268S in one H chain
B6: GpH7-A5/GpH7-B3 variant S267_14T/GpL16-k0 (He Ab) (antibody, human IgG1, kappa)
heavy 1: not shown
heavy 2: not shown
light: B1 light
notes: Anti-glypican-3 heterodimerized IgG1 antibody; the mutation stands in only one H chain (the GpH7-B3 chain); also called S267T in one H chain
B7: GpH7-A5/GpH7-B3 variant H268_01G/GpL16-k0 (He Ab) (antibody, human IgG1, kappa)
heavy 1: not shown
heavy 2: not shown
light: B1 light
notes: Anti-glypican-3 heterodimerized IgG1 antibody; the mutation stands in only one H chain (the GpH7-B3 chain); also called H268G in one H chain
B8: GpH7-A5/GpH7-B3 variant H268_05P/GpL16-k0 (He Ab) (antibody, human IgG1, kappa)
heavy 1: not shown
heavy 2: not shown
light: B1 light
notes: Anti-glypican-3 heterodimerized IgG1 antibody; the mutation stands in only one H chain (the GpH7-B3 chain); also called H268P in one H chain
B9: GpH7-A5/GpH7-B3 variant S267_16H/GpL16-k0 (He Ab) (antibody, human IgG1, kappa)
heavy 1: not shown
heavy 2: not shown
light: B1 light
notes: Anti-glypican-3 heterodimerized IgG1 antibody; the mutation stands in only one H chain (the GpH7-B3 chain); also called S267H in one H chain
B10: GpH7-A5/GpH7-B3 variant S267_19Q/GpL16-k0 (He Ab) (antibody, human IgG1, kappa)
heavy 1: not shown
heavy 2: not shown
light: B1 light
notes: Anti-glypican-3 heterodimerized IgG1 antibody; the mutation stands in only one H chain (the GpH7-B3 chain); also called S267Q in one H chain
B11: GpH7-A5/GpH7-B3 variant S267_15Y/GpL16-k0 (He Ab) (antibody, human IgG1, kappa)
heavy 1: not shown
heavy 2: not shown
light: B1 light
notes: Anti-glypican-3 heterodimerized IgG1 antibody; the mutation stands in only one H chain (the GpH7-B3 chain); also called S267Y in one H chain
B12: GpH7-A5/GpH7-B3 variant H268_18N/GpL16-k0 (He Ab) (antibody, human IgG1, kappa)
heavy 1: not shown
heavy 2: not shown
light: B1 light
notes: Anti-glypican-3 heterodimerized IgG1 antibody; the mutation stands in only one H chain (the GpH7-B3 chain); also called H268N in one H chain
B13: GpH7-A5/GpH7-B3 variant P271_08L/GpL16-k0 (He Ab) (antibody, human IgG1, kappa)
heavy 1: not shown
heavy 2: not shown
light: B1 light
notes: Anti-glypican-3 heterodimerized IgG1 antibody; the mutation stands in only one H chain (the GpH7-B3 chain); also called P271L in one H chain
B14: GpH7-A5/GpH7-B3 variant P271_01G/GpL16-k0 (He Ab) (antibody, human IgG1, kappa)
heavy 1: not shown
heavy 2: not shown
light: B1 light
notes: Anti-glypican-3 heterodimerized IgG1 antibody; the mutation stands in only one H chain (the GpH7-B3 chain); also called P271G in one H chain
B15: GpH7-A5/GpH7-B3 variant H268_20W/GpL16-k0 (He Ab) (antibody, human IgG1, kappa)
heavy 1: not shown
heavy 2: not shown
light: B1 light
notes: Anti-glypican-3 heterodimerized IgG1 antibody; the mutation stands in only one H chain (the GpH7-B3 chain); also called H268W in one H chain

Each binder was assayed against T1, FcγRIIb (assay: SPR (Biacore), antibody captured, FcγR as analyte; binding as % of GpH7-A5/GpH7-B3/GpL16-k0).

He/Con_2b | Binder
193 % of control | B1

The binders below were run against T3, FcγRIa (human, UniProt P12314 16-292) in the same assay as above.
T3 construct: extracellular domain; also called FcgRI; 1a; not shown: His tag at the C terminus
T3 sequence (P12314 16-292): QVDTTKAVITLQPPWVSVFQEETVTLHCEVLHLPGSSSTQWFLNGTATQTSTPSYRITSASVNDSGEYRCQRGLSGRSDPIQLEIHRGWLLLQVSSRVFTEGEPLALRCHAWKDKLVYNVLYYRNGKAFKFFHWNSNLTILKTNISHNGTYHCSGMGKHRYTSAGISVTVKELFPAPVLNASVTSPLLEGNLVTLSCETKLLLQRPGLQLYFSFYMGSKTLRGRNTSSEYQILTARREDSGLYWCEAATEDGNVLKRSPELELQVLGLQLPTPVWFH

He/Con_1a | Binder
105 % of control | B1

The binders below were run against T2, FcγRIIb extracellular domain with … (assay: SPR (Biacore), antibody captured on antigen peptide chip, FcγR as analyte; bound amount against control heterodimerized antibody).
Protocol: (§1) Analysis of interaction between objective antibody and the FcγR was carried out using Biacore T100 (GE Healthcare). HBS-EP+ (GE Healthcare) was used as the running buffer, and the measurement temperature was set to 25° C. Chips produced by immobilizing the antigen peptide by the amine coupling method to a Series S Sencor Chip CM5 (GE Healthcare), or alternatively, chips produced by allowing preliminarily biotinylated antigen peptides to interact with and immobilize onto a Series S Sensor Chip SA (certified) (GE Healthcare) were used. Antibodies of interest were captured onto an antigen peptide-immobilized chip, and allowed to interact to each FcγR diluted with running buffer. To regenerate and repeatedly use the chip, the antibodies captured on the chip were washed off by reacting 10 mM glycine-HCl, pH 1.5.
(§2) The FcγR-binding activity of each antibody was assessed primarily using as an indicator the FcγR-binding activity and dissociation constant for FcγR.

He/Con_2b (IIb binding) | Binder
379 relative binding activity, GpH7-A5/GpH7-B3/GpL16-k0 = 100 | B2
57.2 relative binding activity, GpH7-A5/GpH7-B3/GpL16-k0 = 100 | B3
167 relative binding activity, GpH7-A5/GpH7-B3/GpL16-k0 = 100 | B4
160 relative binding activity, GpH7-A5/GpH7-B3/GpL16-k0 = 100 | B5
104 relative binding activity, GpH7-A5/GpH7-B3/GpL16-k0 = 100 | B6
144 relative binding activity, GpH7-A5/GpH7-B3/GpL16-k0 = 100 | B7
116 relative binding activity, GpH7-A5/GpH7-B3/GpL16-k0 = 100 | B8
65.9 relative binding activity, GpH7-A5/GpH7-B3/GpL16-k0 = 100 | B9
218 relative binding activity, GpH7-A5/GpH7-B3/GpL16-k0 = 100 | B10
37.9 relative binding activity, GpH7-A5/GpH7-B3/GpL16-k0 = 100 | B11
156 relative binding activity, GpH7-A5/GpH7-B3/GpL16-k0 = 100 | B12
103 relative binding activity, GpH7-A5/GpH7-B3/GpL16-k0 = 100 | B13
193 relative binding activity, GpH7-A5/GpH7-B3/GpL16-k0 = 100 | B14
111 relative binding activity, GpH7-A5/GpH7-B3/GpL16-k0 = 100 | B15

The binders below were run against T4, FcγRIIIa extracellular domain with C-terminal His tag (human, UniProt P08637 17-208) in the same assay as above.
T4 construct: extracellular domain; also called FcgRIIIa; 3a; not shown: His tag attached to the C terminus
Protocol: as §1, §2

T4 sequence (P08637 17-208): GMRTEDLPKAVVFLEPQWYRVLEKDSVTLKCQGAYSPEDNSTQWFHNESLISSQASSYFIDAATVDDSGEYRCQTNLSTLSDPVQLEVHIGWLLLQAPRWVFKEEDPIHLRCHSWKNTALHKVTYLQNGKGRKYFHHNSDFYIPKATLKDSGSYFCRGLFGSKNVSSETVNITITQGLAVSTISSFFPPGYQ

He/Con_3a (IIIa binding) | Binder
91.9 relative binding activity, GpH7-A5/GpH7-B3/GpL16-k0 = 100 | B2
21.5 relative binding activity, GpH7-A5/GpH7-B3/GpL16-k0 = 100 | B3
122 relative binding activity, GpH7-A5/GpH7-B3/GpL16-k0 = 100 | B4
122 relative binding activity, GpH7-A5/GpH7-B3/GpL16-k0 = 100 | B5
45.6 relative binding activity, GpH7-A5/GpH7-B3/GpL16-k0 = 100 | B6
96.7 relative binding activity, GpH7-A5/GpH7-B3/GpL16-k0 = 100 | B7
76.4 relative binding activity, GpH7-A5/GpH7-B3/GpL16-k0 = 100 | B8
17.9 relative binding activity, GpH7-A5/GpH7-B3/GpL16-k0 = 100 | B9
65 relative binding activity, GpH7-A5/GpH7-B3/GpL16-k0 = 100 | B10
11.8 relative binding activity, GpH7-A5/GpH7-B3/GpL16-k0 = 100 | B11
104 relative binding activity, GpH7-A5/GpH7-B3/GpL16-k0 = 100 | B12
71 relative binding activity, GpH7-A5/GpH7-B3/GpL16-k0 = 100 | B13
113 relative binding activity, GpH7-A5/GpH7-B3/GpL16-k0 = 100 | B14
82.8 relative binding activity, GpH7-A5/GpH7-B3/GpL16-k0 = 100 | B15

Each binder was assayed against T3, FcγRIa (assay: SPR (Biacore); He/Con_1a (FcγRIa) divided by He/Con_2b (FcγRIIb)).

Ia/IIb He_1a/2b [ratio] | Binder
0.54 | B1

The binders below were run against T4, FcγRIIIa extracellular domain with … (assay: SPR (Biacore); relative FcγRIIIa binding divided by relative FcγRIIb binding of the same antibody).
Protocol: as §1, §2

He_3a/2b (IIIa/IIb) | Binder
0.24 ratio of He/Con_3a to He/Con_2b | B2
0.37 ratio of He/Con_3a to He/Con_2b | B3
0.73 ratio of He/Con_3a to He/Con_2b | B4
0.76 ratio of He/Con_3a to He/Con_2b | B5
0.44 ratio of He/Con_3a to He/Con_2b | B6
0.67 ratio of He/Con_3a to He/Con_2b | B7
0.66 ratio of He/Con_3a to He/Con_2b | B8
0.27 ratio of He/Con_3a to He/Con_2b | B9
0.3 ratio of He/Con_3a to He/Con_2b | B10
0.31 ratio of He/Con_3a to He/Con_2b | B11
0.67 ratio of He/Con_3a to He/Con_2b | B12
0.69 ratio of He/Con_3a to He/Con_2b | B13
0.59 ratio of He/Con_3a to He/Con_2b | B14
0.74 ratio of He/Con_3a to He/Con_2b | B15
